The labels stand for the following.
B1: LYP tagged with the myc epitope, Arg620 variant (myc-LYPR) [human] / HA-CSK [not stated] (parent complex)
chain 1: MDQREILQKFLDEAQSKKITKEEFANEFLKLKRQSTKYKADKTYPTTVAEKPKNIKKNRYKDILPYDYSRVELSLITSDEDSSYINANFIKGVYGPKAYIATQGPLSTTLLDFWRMIWEYSVLIIVMACMEYEMGKKKCERYWAEPGEMQLEFGPFSVSCEAEKRKSDYIIRTLKVKFNSETRTIYQFHYKNWPDHDVPSSIDPILELIWDVRCYQEDDSVPICIHCSAGCGRTGVICAIDYTWMLLKDGIIPENFSVFSLIREMRTQRPSLVQTQEQYELVYNAVLELFKRQMDVIRDKHSGTESQAKHCIPEKNHTLQADSYSPNLPKSTTKAAKMMNQQRTKMEIKESSSFDFRTSEISAKEELVLHPAKSSTSFDFLELNYSFDKNADTTMKWQTKAFPIVGEPLQKHQSLDLGSLLFEGCSNSKPVNAAGRYFNSKVPITRTKSTPFELIQQRETKEVDSKENFSYLESQPHDSCFVEMQAQKVMHVSSAELNYSLPYDSKHQIRNASNVKHHDSSALGVYSYIPLVENPYFSSWPPSGTSSKMSLDLPEKQDGTVFPSSLLPTSSTSLFSYYNSHDSLSLNSPTNISSLLNQESAVLATAPRIDDEIPPPLPVRTPESFIVVEEAGEFSPNVPKSLSSAVKVKIGTSLEWGGTSEPKKFDDSVILRPSKSVKLRSPKSELHQDRSSPPPPLPERTLESFFLADEDCMQAQSIETYSTSYPDTMENSTSSKQTLKTPGKSFTRSKSLKILRNMKKSICNSCPPNKPAESVQSNNSSSFLNFGFANRFSKPKGPRNPPPTWNI
chain 2: MSAIQAAWPSGTECIAKYNFHGTAEQDLPFCKGDVLTIVAVTKDPNWYKAKNKVGREGIIPANYVQKREGVKAGTKLSLMPWFHGKITREQAERLLYPPETGLFLVRESTNYPGDYTLCVSCDGKVEHYRIMYHASKLSIDEEVYFENLMQLVEHYTSDADGLCTRLIKPKVMEGTVAAQDEFYRSGWALNMKELKLLQTIGKGEFGDVMLGDYRGNKVAVKCIKNDATAQAFLAEASVMTQLRHSNLVQLLGVIVEEKGGLYIVTEYMAKGSLVDYLRSRGRSVLGGDCLLKFSLDVCEAMEYLEGNNFVHRDLAARNVLVSEDNVAKVSDFGLTKEASSTQDTGKLPVKWTAPEALREKKFSTKSDVWSFGILLWEIYSFGRVPYPRIPLKDVVPRVEKGYKMDAPDGCPPAVYEVMKNCWHLDAAMRPSFLQLREQLEHIKTHELHL

The variants in one assay derive from B1. Description: co-immunoprecipitation (IP anti-myc, IB HA), blot densitometry; transfected HEK293 cells; parent: 48.1.
As for chain 1 P695A, the response turned out to be 23.3 arbitrary units.
Still for that read-out and setting: to chain 1 R620W belongs 18 arbitrary units; to chain 1 R620W, chain 1 P695A, 0.07 arbitrary units.
On the same count and under the same terms, to chain 1 P615A, chain 1 P618A, chain 1 P695A belongs 0.77 arbitrary units.
For the variant chain 1 P615A, chain 1 P618A, the response amounted to 10.3 arbitrary units.

In the next assay the parent is B1. Description: co-immunoprecipitation (IP anti-myc, IB HA), blot densitometry; transiently transfected HEK293 cells; pEF empty-vector lane 3.67; parent: 57.8.
For chain 1 R620W, the response stood at 19.5 arbitrary units.
Same read-out and setting: to chain 1 I626A, chain 1 V627A belongs 19.1 arbitrary units.

The next assay covers variants of B1. Put plainly: co-immunoprecipitation (IP anti-myc, IB HA), blot densitometry; HEK293 cells; parent: 64.8.
Turning to chain 1 R620F, the response came to 5.2 arbitrary units.
On the same count and under the same terms, to chain 1 R620F, chain 1 R700F belongs 0.03 arbitrary units; to chain 1 R700F, 30 arbitrary units.

(Values after publication PMC3554717 (2013).)
